In US6950754:

Biological target: GCN4-p1
Test: size exclusion chromatography, self-association

GCN4-p1 (peptide; modification not given), sequence (chain, as listed by the source): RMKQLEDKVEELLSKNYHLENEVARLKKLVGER

oligomerization state (N): 2
Substance: GCN4-p1 (peptide; modification not given)
